The assay has as its target T1, annexin V (Homo sapiens, UniProt P08758).
T1 sequence (P08758 1-320): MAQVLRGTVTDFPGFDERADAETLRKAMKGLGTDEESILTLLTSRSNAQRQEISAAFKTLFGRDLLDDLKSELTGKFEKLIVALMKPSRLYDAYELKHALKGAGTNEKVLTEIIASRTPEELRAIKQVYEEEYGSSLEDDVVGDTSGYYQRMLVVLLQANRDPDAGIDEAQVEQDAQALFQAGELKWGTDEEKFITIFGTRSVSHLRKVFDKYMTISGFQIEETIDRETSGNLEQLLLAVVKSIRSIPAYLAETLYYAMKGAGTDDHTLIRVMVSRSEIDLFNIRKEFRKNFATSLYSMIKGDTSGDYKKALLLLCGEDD
As to the kind of experiment: overlay binding assay on immobilized annexin V. To be noted: immobilized annexin V on nitrocellulose, overlay 37° C. 30 min, Western blotting. The method, then: A binding assay was performed in vitro, using an immobilized annexin V with the δ-PKC, δ-V1 (SEQ ID NO:18) (the C2 domain of δ-PKC), δ-V5 (SEQ ID NO:19), and ε-V1 (SEQ ID NO:20) peptides. These domains are recognized in the art as participating in protein-protein interactions.
10 μg of the annexin V was separated on 12% SDS-PAGE gel and transferred to nitrocellulose, and then cut into strips. The strips were incubated with blocking buffer (50 mM Tris pH 7.5, 200 mM NaCl, 3% bovine serum albumin, 0.1% PEG20). The strips were then incubated in overlay buffer (50 mM Tris pH 7.5, 200 mM NaCl, 1% PEG20, 12 mM β-mercaptoethanol) in the presence where appropriate of 30 μg crude bacterial cell lysate containing fusion proteins of myelin basic protein (MBP)-delta V1 PKC (MBP-δV1), glutathione-S-transferase-delta V5 PKC (GST-δV5), and full length sequences of δ-PKC or rat purified ε-PKC (SEQ ID NO:21) at 37° C. for 30 min. The strips where then washed with wash buffer (50 mM Tris pH 7.5, 200 mM NaCl, 0.1% PEG20, 12 mM β-mercaptoethanol), and then incubated with fixative (0.2% formaldehyde in PBS) and neutralizing solution (0.2M glycine in PBS) at room temperature 20 min each. After washing with buffer, the strips were probed with antibodies according to the overlay protein, and resulting bands were visualized using ECL Western blotting.
For orientation: Immunoblotting shows a protein as a band on a membrane.

B1: δ-PKC: full length δ-protein kinase C (SEQ ID NO:16) (protein, listed as Homo sapiens)
chain: MAPFLRISFNSYELGSLQVEDEASQPFCAVKMKEALSTERGKTLVQKKPTMYPEWKTTFDAHIYEGRVIQIVLMRAAEDPVSEVTVGVSVLAERCKKNNGKAEFWLDLQPQAKVLMCVQYFLEDGDCKQSMRSEEEAKFPTMNRRGAIKQAKIHYIKNHEFIATFFGQPTFCSVCKEFVWGLNKQGYKCRQCNAAIHKKCIDKIIGRCTGTATNSRDTIFQKERFNIDMPHRFKVYNYMSPTFCDHCGSLLWGLVKQGLKCEDCGMNVHHKCREKVANLCGINQKLLAEALNQVTQRSSRKLDTTESVGIYQGFEKKPEVSGSDILDNNGTYGKIWEGSTRCTLENFTFQKVLGKGSFGKVLLAELKGKDKYFAIKCLKKDVVLIDDDVECTMVEKRVLALAWESPFLTHLICTFQTKDHLFFVMEFLNGGDLMFHIQDKGRFELYRATFYAAEIICGLQFLHSKGIIYRDLKLDNVMLDRDGHIKIADFGMCKENIFGEGRASTFCGTPDYIAPEILQGLKYSFSVDWWSFGVLLYEMLIGQSPFHGDDEDELFESIRVDTPHYPRWITKESKDIMEKLFERDPDKRLGVTGNIRIHPFFKTINWSLLEKRKVEPPFKPKVKSPSDYSNFDPEFLNEKPQLSFSDKNLIDSMDQEAFHGFSFVNPKFEQFLDI
B1: the “binding to annexin V” value is “bind to the annexin V”.

B2: ε-V1: V1 region of ε-PKC (SEQ ID NO:20) (protein, listed as Homo sapiens)
chain: MVVFNGLLKIKICEAVSLKPTAWSLRHAVGPRPQTFLLDPYIALNVDDSRIGQTATKQKTNSPAWHDEFVTDVCNGRKIELAVFHDAPIGYDDFVANCTIQFEELLQNGSRHFEDWIDLEPEGKVYVIIDLSGSSGEAPKDNEE
For B2, the “binding to annexin V” value is “did not bind to the annexin V”.

B3: δ-V1: V1/C2 domain of δ-PKC (SEQ ID NO:18), used as myelin basic protein fusion (protein)
chain: MAPFLRISFNSYELGSLQAEDDASQPFCAVKMKEALTTDRGKTLVQKKPTMYPEWKSTFDAHIYEGRVIQIVLMRAAEDPMSEVTVGVSVLAERCKKNNGKAEFWLDLQPQAKVLMCVQYFLEDGDCKQSMRSEEEAMFPTMNRRGAIKQAKIHYIKNHE
modifications: left off: large carriers
For B3, the “binding to annexin V” value is “bind to the annexin V”.

For the origin of these results see US20090081786A1, “Peptide sequences for modulation of protein kinase C” (priority 2006, published 2009).
